Here are results for one molecule from patent US20210395344A1.

Assay [1] addresses COVID S1 RBD Fc fusion (Antigen 1) (SARS-CoV-2), P0DTC2. Put plainly: phage ELISA. The conditions noted are these: remark: other sources report otherwise. (An ELISA detects its analyte on a solid surface through an enzyme-linked reagent.)
The target in assay [2] is SARS-CoV-2 S protein trimer (SARS-CoV-2), P0DTC2. In words: column DB/S-T (format not explained). The conditions noted are these: remark: other sources report otherwise.

B1: 1-5 (antibody, V domains shown)
VH: EVQLLESGGGLVQPGGSLRLSCAASGFTFSSQAMSWVRQAPGKGLEWVSAISGSGGGTYYADSVKGRFTISRDNSKNTLYLQMNSLRAEDTAVYYCAKDRRFGEFDPWGQGTLVTVSS
VL: QSALTQPASVSGSPGQSITISCTGTSSGVGSYNLVSWYQQHPGKAPKLMIYEASKRPSGVSNRFSGSKSGNTASLTISGLQAEDEADYYCCSYAGSYTFAVFGGGTKLTVL
B1 displayed an ELISA fold over background (fold over background) in assay [1] of 1.6. In addition, the dissociation constant Kd (in general, the concentration at which binding is half-saturated) in assay [2] came to 1160 nM.
